Assay results reported in patent publication US20040018191A1 (SCHERING, published 2004).

B1: 15H12 fully human monoclonal anti-IGFR1 antibody (antibody, IgG3, V domains shown)
VH: EVQLVQSGGGLVHPGGSLRLSCAASGFTFSSFAMHWVRQAPGKGLEWISVIDTRGATYYADSVKGRFTISRDNAKNSLYLQMNSLRAEDMAVYYCARLGNFYYGMDVWGQGTTVTVSS
VL: EIVLTQVPDFQSVTPKEKVTITCRASQSIGSSLHWYQQKPDQSPKLLIKYASQSLSGVPSRFSGSGSGTDFTLTINSLEAEDAAAYYCHQSSRLPHTFGGGTKVEIKR
B2: 19D12 fully human monoclonal anti-IGFR1 antibody (antibody, V domains shown)
VH: EVQLVQSGGGLVHPGGSLRLSCAASGFTFSSFAMHWVRQAPGKGLEWISVIDTRGATYYADSVKGRFTISRDNAKNSLYLQMNSLRAEDMAVYYCARLGNFYYGMDVWGQGTTVTVSS
VL: EIVLTQVPDFQSVTPKEKVTITCRASQSIGSSLHWYQQKPDQSPKLLIKYASQSLSGVPSRFSGSGSGTDFTLTINSLEAEDAAAYYCHQSSRLPHTFGGGTKVEIKR
B3: 1H3 fully human monoclonal anti-IGFR1 antibody (antibody, V domains shown)
VH: EVQLVQSGGGLVLPGGSLRLSCAGSGFTFSNYAMHWIRQAPGKGLEWVSAIGAGGDTYYADSVKGRFTISRDNAKDSLYLQMNSLRAEDMAVYYCARGRHRNWYYYNKDYWGQGTLVTVSS
VL: EIVLTQSPATLSLSPGERATLSCRASQSVSSFLAWYQQKPGQAPRLLIYDASNRAPGIPARFSGSGSGTDFTLTISSLEPEDFAVYYCQQRSNWPRWTFGQGTKVEIKR

molecular target: human IGFR1 on cells (HEK293 cells transfected with IGFR1 DNA; MCF-7 cells expressing endogenous IGFR1) (human, UniProt P08069 31-1367); assay: cell-based or functional assay
Sequence (P08069 31-1367 limits assumed): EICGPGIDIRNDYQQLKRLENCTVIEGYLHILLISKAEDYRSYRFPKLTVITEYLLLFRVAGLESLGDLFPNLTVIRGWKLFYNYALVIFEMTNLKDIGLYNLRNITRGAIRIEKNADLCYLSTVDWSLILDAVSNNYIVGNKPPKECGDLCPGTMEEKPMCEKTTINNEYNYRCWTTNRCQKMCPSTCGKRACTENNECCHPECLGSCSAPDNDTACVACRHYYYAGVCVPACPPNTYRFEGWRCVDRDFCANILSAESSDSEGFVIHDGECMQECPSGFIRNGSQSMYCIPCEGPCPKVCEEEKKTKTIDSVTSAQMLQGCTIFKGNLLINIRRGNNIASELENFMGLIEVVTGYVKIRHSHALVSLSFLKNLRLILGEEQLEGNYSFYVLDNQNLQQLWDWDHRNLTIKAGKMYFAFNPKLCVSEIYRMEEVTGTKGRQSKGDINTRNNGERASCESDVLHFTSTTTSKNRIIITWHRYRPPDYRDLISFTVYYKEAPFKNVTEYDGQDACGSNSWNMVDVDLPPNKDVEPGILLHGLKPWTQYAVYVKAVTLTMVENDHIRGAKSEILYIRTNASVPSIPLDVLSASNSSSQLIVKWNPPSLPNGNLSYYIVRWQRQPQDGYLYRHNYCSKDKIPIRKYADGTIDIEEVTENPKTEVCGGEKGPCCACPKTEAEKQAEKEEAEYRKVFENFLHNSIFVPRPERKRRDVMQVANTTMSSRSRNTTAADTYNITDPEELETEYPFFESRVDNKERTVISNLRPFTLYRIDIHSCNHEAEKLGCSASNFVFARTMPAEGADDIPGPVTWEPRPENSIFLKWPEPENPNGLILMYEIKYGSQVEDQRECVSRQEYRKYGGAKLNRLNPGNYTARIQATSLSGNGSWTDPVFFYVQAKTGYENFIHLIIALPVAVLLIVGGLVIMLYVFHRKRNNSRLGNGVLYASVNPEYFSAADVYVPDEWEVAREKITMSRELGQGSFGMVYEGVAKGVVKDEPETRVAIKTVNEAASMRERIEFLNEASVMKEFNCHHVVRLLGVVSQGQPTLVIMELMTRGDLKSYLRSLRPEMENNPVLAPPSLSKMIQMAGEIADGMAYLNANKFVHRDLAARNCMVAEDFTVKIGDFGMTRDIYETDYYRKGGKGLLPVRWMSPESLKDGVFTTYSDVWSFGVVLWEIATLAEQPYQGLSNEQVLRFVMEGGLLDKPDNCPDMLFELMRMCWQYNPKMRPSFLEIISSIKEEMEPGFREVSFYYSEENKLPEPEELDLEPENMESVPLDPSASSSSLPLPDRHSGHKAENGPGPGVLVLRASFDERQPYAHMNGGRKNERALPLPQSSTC

IGFR1 autophosphorylation (IGF-I stimulated cells, immunoprecipitation and Western blot), IC50, 0.1 nM:
B1
B2
B3
